{"source": "paper PMC9117644", "about": "(Frontiers in Bioengineering and Biotechnology, 2022)", "binders": {"B1": {"name": "human MD-2 (S2-derived, Protein A tagged) (natural protein, UniProt Q9Y6Y9 19-160, looked up)", "chain": "QKQYWVCNSSDASISYTYCDKMQYPISINVNPCIELKRSKGLLHIFYIPRRDLKQLYFNLYITVNTMNLPKRKEVICRGSDDDYSFCRALKGETVNTTISFSFKGIKFSKGKYKCVVEAISGSPEEMLFCLEFVILHQPNSN", "notes": "human lymphocyte antigen 96 (MD-2), UniProtKB Q9Y6Y9, Q19-N160, Drosophila codon-optimized; Cloned into pExpreS2-1-CRPA (Addgene #175445): N-terminal BiP signal peptide for secretion, thrombin site and Protein A at the C-terminus; the tag was routinely left on for stability; also called lymphocyte antigen 96; source: purified (IgG Sepharose, SEC); not shown: Protein A, C-terminal, kept"}}, "biological_target": "T1, human TLR4 ectodomain (S2-derived) (human, UniProt O00206 23-629)", "T1 construct": "human toll-like receptor 4 ectodomain, UniProtKB O00206, P23-M629, Drosophila codon-optimized; Cloned into pExpreS2-1-CRPA (Addgene #175445): N-terminal BiP signal peptide for secretion, C-terminal thrombin-cleavable Protein A tag; a few residues of the thrombin site probably remain after cleavage; also called toll-like receptor 4; Drosophila-derived TLR4; source: purified (IgG Sepharose, …)", "T1 sequence (O00206 23-629)": "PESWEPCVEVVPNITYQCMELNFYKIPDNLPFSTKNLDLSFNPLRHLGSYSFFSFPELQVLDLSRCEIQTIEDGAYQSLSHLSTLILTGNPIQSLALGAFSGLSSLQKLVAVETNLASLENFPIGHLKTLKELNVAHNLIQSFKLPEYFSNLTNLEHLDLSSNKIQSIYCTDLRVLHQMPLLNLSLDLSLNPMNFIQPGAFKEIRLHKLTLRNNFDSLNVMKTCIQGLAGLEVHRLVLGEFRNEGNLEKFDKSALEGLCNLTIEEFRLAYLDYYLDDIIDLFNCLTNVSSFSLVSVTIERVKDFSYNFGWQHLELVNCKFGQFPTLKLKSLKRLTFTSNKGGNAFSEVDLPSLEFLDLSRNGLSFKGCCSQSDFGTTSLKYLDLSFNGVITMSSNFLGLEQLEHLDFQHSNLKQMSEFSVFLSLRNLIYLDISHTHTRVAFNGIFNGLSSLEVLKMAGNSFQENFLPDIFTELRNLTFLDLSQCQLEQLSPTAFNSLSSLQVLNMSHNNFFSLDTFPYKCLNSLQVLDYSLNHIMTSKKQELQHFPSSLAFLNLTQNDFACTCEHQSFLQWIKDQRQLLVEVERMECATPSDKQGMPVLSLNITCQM", "assay": "SEC; analytical SEC, Superdex 200 Increase 30/100 on a Dionex Ultimate 3000 UHPLC; 100-µl injections of 200 µg TLR4, 400 µg MD-2, or 200 µg TLR4 + 400 µg MD-2; A280 traces", "details": "both partners purified", "data": [{"binder": "B1", "values": [{"measurement": "binding result", "value": "binds"}]}]}
